target: Fes (UniProt P07332); assay: phosphorylation enrichment, bacterial display (enrichment ratio); higher = better substrate or ligand; peptides without Tyr show the background
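Also: 11-residue human phosphosite peptides and single-mutation variants displayed on the E. coli surface, counted by deep sequencing, each peptide's frequency after selection divided by its frequency in the unselected input library; frequency after pTyr selection over input frequency; kinase dosed for 20-30% of maximal phosphorylation in three min.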

Fes, sequence (P07332 whole entry, looked up): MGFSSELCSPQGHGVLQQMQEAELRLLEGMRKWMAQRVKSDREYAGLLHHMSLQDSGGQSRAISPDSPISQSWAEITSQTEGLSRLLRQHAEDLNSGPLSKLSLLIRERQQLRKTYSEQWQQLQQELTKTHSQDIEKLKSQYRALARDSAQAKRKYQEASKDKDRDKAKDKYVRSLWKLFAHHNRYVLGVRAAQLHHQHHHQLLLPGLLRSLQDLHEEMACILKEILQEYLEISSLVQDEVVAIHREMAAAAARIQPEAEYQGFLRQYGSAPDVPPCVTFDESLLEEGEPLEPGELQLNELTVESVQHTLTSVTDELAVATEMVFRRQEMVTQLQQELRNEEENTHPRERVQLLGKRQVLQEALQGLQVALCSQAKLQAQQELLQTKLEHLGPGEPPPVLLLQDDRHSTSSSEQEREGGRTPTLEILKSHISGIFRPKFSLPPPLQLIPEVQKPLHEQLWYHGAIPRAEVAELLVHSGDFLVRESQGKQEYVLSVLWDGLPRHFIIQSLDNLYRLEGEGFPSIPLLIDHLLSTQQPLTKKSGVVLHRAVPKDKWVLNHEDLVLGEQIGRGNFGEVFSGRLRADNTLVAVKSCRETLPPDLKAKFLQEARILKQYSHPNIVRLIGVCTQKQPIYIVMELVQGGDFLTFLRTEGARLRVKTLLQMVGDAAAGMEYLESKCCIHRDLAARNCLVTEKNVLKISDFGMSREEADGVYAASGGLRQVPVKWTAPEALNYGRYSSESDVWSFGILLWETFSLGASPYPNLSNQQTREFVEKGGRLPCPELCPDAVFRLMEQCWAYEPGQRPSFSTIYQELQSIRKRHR

Sequence	phosphorylation enrichment
YQLPYYNMVPS [BMPR1A_Y458]	0.802
VMTSKYRGGGG [HBA1_Y141_L137M]	0.491
FFSSEYHFVGG [CTSC_Y345_YF]	0.91
DLNATYCTIQG [U2SURP_Y634_R635C]	1.07
MVIPNYSSWTE [UROC1_Y185_R188W]	1.23
KLLLKYSFHDV [RNF213_Y4141]	1.31
HAVEDYQAIVD [CCT7_Y263_T259A]	1.47
PRQRRYVFFFS [PTEN_Y174_S170R_YF]	0.605
LFLASYCIGGG [UBD_Y161_C160S]	1.63
EGGFAYVPLKD [PRIM2_Y208_D204G]	1.05
PDMHSYMVRYN [GRIN2D_Y732]	1.09
DRTVHYVDEKG [IFT140_Y216_G212R]	0.742
GSIQQYIYKQE [PRG4_Y1271]	0.644
SSSAIYDNPNL [DCP1B_Y191]	0.737
EERKTYVNTTL [TEK_Y1102]	0.977
KRLDGYVLEGW [IGSF9_Y656_R661W]	0.835
TEYIQYVRRKN [MAX_Y73_M74V]	0.573
SHGQDYLAGNK [GSTA2_Y147_V149A]	0.845
PSSRDYKDNIK [PIGN_Y227_H229D]	0.649
TIWDSYTTNKV [GNB1_Y85_I80T]	1.11
SMAKYYASGIA [ACADSB_Y373_E376G]	0.622
GRSTFYWPRPR [GAGE12J_Y10_YF]	0.602
AFDNLYYWDQD [ERBB2_Y1221]	2.42
VEKEKYVSFIS [JMJD1C_Y596_M591V_YF]	0.796
PLRANYLIARV [HLCS_Y635_D634N]	1.12
CKLVDYDSARH [BIN1_Y150_R145C]	0.909
FAKSVYWDNTL [NUP107_Y296_E298D_YF]	1.04
IDAICYYRMEN [NPHS2_Y194]	1.49
CEHRGCLYLAI [TEK_Y897_Y897C]	1.09

target: EPHB1 (UniProt P54762); assay: as above
Sequence (P54762 whole entry, looked up): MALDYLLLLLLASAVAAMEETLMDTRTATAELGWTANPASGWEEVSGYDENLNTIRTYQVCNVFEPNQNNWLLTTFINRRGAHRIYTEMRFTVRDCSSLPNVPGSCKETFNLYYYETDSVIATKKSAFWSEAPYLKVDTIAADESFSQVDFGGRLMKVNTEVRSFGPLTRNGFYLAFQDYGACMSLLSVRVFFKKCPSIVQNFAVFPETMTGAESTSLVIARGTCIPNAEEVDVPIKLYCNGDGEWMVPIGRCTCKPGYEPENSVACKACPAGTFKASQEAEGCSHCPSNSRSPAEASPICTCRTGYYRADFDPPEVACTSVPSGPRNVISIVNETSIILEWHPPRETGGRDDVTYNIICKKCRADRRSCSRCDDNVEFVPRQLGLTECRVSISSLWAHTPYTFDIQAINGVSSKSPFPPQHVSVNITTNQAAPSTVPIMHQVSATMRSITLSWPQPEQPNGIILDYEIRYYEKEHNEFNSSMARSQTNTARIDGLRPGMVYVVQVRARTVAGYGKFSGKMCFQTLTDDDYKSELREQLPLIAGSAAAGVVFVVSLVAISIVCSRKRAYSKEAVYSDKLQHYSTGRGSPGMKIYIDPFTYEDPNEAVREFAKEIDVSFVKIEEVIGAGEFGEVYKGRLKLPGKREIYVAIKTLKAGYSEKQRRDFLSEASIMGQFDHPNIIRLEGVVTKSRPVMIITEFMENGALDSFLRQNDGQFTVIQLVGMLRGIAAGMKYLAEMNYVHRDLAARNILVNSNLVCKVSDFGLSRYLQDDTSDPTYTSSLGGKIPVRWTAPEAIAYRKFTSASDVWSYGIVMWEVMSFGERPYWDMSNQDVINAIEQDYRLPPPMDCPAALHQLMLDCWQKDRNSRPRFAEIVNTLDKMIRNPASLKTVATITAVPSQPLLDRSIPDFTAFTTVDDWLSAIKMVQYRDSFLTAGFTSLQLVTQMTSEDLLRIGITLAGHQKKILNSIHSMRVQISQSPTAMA

Sequence	phosphorylation enrichment
YQLPYYNMVPS [BMPR1A_Y458]	2.58
VMTSKYRGGGG [HBA1_Y141_L137M]	0.332
FFSSEYHFVGG [CTSC_Y345_YF]	3.21
DLNATYCTIQG [U2SURP_Y634_R635C]	7.15
MVIPNYSSWTE [UROC1_Y185_R188W]	11.1
KLLLKYSFHDV [RNF213_Y4141]	0.56
HAVEDYQAIVD [CCT7_Y263_T259A]	0.73
PRQRRYVFFFS [PTEN_Y174_S170R_YF]	0.606
LFLASYCIGGG [UBD_Y161_C160S]	0.655
EGGFAYVPLKD [PRIM2_Y208_D204G]	0.466
PDMHSYMVRYN [GRIN2D_Y732]	0.637
DRTVHYVDEKG [IFT140_Y216_G212R]	0.431
GSIQQYIYKQE [PRG4_Y1271]	0.425
SSSAIYDNPNL [DCP1B_Y191]	12.2
EERKTYVNTTL [TEK_Y1102]	0.526
KRLDGYVLEGW [IGSF9_Y656_R661W]	0.48
TEYIQYVRRKN [MAX_Y73_M74V]	0.465
SHGQDYLAGNK [GSTA2_Y147_V149A]	0.348
PSSRDYKDNIK [PIGN_Y227_H229D]	0.595
TIWDSYTTNKV [GNB1_Y85_I80T]	0.537
SMAKYYASGIA [ACADSB_Y373_E376G]	0.408
GRSTFYWPRPR [GAGE12J_Y10_YF]	0.446
AFDNLYYWDQD [ERBB2_Y1221]	5.88
VEKEKYVSFIS [JMJD1C_Y596_M591V_YF]	0.467
PLRANYLIARV [HLCS_Y635_D634N]	1.12
CKLVDYDSARH [BIN1_Y150_R145C]	0.505
FAKSVYWDNTL [NUP107_Y296_E298D_YF]	0.719
IDAICYYRMEN [NPHS2_Y194]	0.786
CEHRGCLYLAI [TEK_Y897_Y897C]	0.556

system: c-Src; assay: as above

Sequence	phosphorylation enrichment
YQLPYYNMVPS [BMPR1A_Y458]	5.1
VMTSKYRGGGG [HBA1_Y141_L137M]	0.363
FFSSEYHFVGG [CTSC_Y345_YF]	2.94
DLNATYCTIQG [U2SURP_Y634_R635C]	5.32
MVIPNYSSWTE [UROC1_Y185_R188W]	0.719
KLLLKYSFHDV [RNF213_Y4141]	0.436
HAVEDYQAIVD [CCT7_Y263_T259A]	0.942
PRQRRYVFFFS [PTEN_Y174_S170R_YF]	0.597
LFLASYCIGGG [UBD_Y161_C160S]	0.495
EGGFAYVPLKD [PRIM2_Y208_D204G]	0.419
PDMHSYMVRYN [GRIN2D_Y732]	0.782
DRTVHYVDEKG [IFT140_Y216_G212R]	0.341
GSIQQYIYKQE [PRG4_Y1271]	0.752
SSSAIYDNPNL [DCP1B_Y191]	5.76
EERKTYVNTTL [TEK_Y1102]	0.446
KRLDGYVLEGW [IGSF9_Y656_R661W]	0.418
TEYIQYVRRKN [MAX_Y73_M74V]	0.657
SHGQDYLAGNK [GSTA2_Y147_V149A]	0.404
PSSRDYKDNIK [PIGN_Y227_H229D]	0.569
TIWDSYTTNKV [GNB1_Y85_I80T]	0.496
SMAKYYASGIA [ACADSB_Y373_E376G]	0.394
GRSTFYWPRPR [GAGE12J_Y10_YF]	0.501
AFDNLYYWDQD [ERBB2_Y1221]	5.67
VEKEKYVSFIS [JMJD1C_Y596_M591V_YF]	0.396
PLRANYLIARV [HLCS_Y635_D634N]	1.01
CKLVDYDSARH [BIN1_Y150_R145C]	0.372
FAKSVYWDNTL [NUP107_Y296_E298D_YF]	0.76
IDAICYYRMEN [NPHS2_Y194]	1.71
CEHRGCLYLAI [TEK_Y897_Y897C]	1.05

target: FGFR3 (UniProt P22607); assay: as above
Sequence (P22607 whole entry, looked up): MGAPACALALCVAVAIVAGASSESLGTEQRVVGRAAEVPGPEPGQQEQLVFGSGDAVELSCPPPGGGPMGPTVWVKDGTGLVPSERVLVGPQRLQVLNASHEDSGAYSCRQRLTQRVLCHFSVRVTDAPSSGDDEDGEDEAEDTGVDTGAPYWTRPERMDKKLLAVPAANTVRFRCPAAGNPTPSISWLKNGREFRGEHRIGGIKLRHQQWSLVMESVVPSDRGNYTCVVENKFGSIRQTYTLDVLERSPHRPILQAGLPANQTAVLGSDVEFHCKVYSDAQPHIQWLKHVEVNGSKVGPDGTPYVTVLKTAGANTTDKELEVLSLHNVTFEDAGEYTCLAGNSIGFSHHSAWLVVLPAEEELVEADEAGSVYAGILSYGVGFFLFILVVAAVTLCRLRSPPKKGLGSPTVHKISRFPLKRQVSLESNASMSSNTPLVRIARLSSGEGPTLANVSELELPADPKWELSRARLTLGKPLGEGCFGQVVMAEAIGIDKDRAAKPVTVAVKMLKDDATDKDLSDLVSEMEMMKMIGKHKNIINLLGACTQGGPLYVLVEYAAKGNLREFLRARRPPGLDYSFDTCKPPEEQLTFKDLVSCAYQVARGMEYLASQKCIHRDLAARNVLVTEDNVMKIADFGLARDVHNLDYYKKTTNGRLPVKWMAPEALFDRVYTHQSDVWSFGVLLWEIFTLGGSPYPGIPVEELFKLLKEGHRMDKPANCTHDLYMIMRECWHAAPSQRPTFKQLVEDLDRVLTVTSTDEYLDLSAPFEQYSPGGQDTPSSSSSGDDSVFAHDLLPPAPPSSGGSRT

Sequence	phosphorylation enrichment
YQLPYYNMVPS [BMPR1A_Y458]	10.5
VMTSKYRGGGG [HBA1_Y141_L137M]	0.467
FFSSEYHFVGG [CTSC_Y345_YF]	10.7
DLNATYCTIQG [U2SURP_Y634_R635C]	0.954
MVIPNYSSWTE [UROC1_Y185_R188W]	1.07
KLLLKYSFHDV [RNF213_Y4141]	0.808
HAVEDYQAIVD [CCT7_Y263_T259A]	1.05
PRQRRYVFFFS [PTEN_Y174_S170R_YF]	0.715
LFLASYCIGGG [UBD_Y161_C160S]	1.04
EGGFAYVPLKD [PRIM2_Y208_D204G]	0.497
PDMHSYMVRYN [GRIN2D_Y732]	1.04
DRTVHYVDEKG [IFT140_Y216_G212R]	0.515
GSIQQYIYKQE [PRG4_Y1271]	0.539
SSSAIYDNPNL [DCP1B_Y191]	0.457
EERKTYVNTTL [TEK_Y1102]	0.586
KRLDGYVLEGW [IGSF9_Y656_R661W]	0.511
TEYIQYVRRKN [MAX_Y73_M74V]	0.488
SHGQDYLAGNK [GSTA2_Y147_V149A]	0.49
PSSRDYKDNIK [PIGN_Y227_H229D]	0.614
TIWDSYTTNKV [GNB1_Y85_I80T]	0.633
SMAKYYASGIA [ACADSB_Y373_E376G]	0.469
GRSTFYWPRPR [GAGE12J_Y10_YF]	0.47
AFDNLYYWDQD [ERBB2_Y1221]	9.6
VEKEKYVSFIS [JMJD1C_Y596_M591V_YF]	0.793
PLRANYLIARV [HLCS_Y635_D634N]	0.853
CKLVDYDSARH [BIN1_Y150_R145C]	0.624
FAKSVYWDNTL [NUP107_Y296_E298D_YF]	0.688
IDAICYYRMEN [NPHS2_Y194]	3.18
CEHRGCLYLAI [TEK_Y897_Y897C]	0.685
